Results taken from ChEMBL document CHEMBL2074072, “Transport of glutathione, glucuronate, and sulfate conjugates by the MRP gene-encoded conjugate export pump” (Cancer Res, 1996).

Substrate: N[C@@H](CCC(=O)N[C@H](CSc1ccc([N+](=O)[O-])cc1[N+](=O)[O-])C(=O)NCC(=O)O)C(=O)O
Test: TP_TRANSPORTER: uptake in membrane vesicle from MRP1-expressing HeLa cells
Assay type: functional, cell membranes

B1: Multidrug resistance-associated protein 1 (Homo sapiens) (protein)
chain: MALRGFCSADGSDPLWDWNVTWNTSNPDFTKCFQNTVLVWVPCFYLWACFPFYFLYLSRHDRGYIQMTPLNKTKTALGFLLWIVCWADLFYSFWERSRGIFLAPVFLVSPTLLGITMLLATFLIQLERRKGVQSSGIMLTFWLVALVCALAILRSKIMTALKEDAQVDLFRDITFYVYFSLLLIQLVLSCFSDRSPLFSETIHDPNPCPESSASFLSRITFWWITGLIVRGYRQPLEGSDLWSLNKEDTSEQVVPVLVKNWKKECAKTRKQPVKVVYSSKDPAQPKESSKVDANEEVEALIVKSPQKEWNPSLFKVLYKTFGPYFLMSFFFKAIHDLMMFSGPQILKLLIKFVNDTKAPDWQGYFYTVLLFVTACLQTLVLHQYFHICFVSGMRIKTAVIGAVYRKALVITNSARKSSTVGEIVNLMSVDAQRFMDLATYINMIWSAPLQVILALYLLWLNLGPSVLAGVAVMVLMVPVNAVMAMKTKTYQVAHMKSKDNRIKLMNEILNGIKVLKLYAWELAFKDKVLAIRQEELKVLKKSAYLSAVGTFTWVCTPFLVALCTFAVYVTIDENNILDAQTAFVSLALFNILRFPLNILPMVISSIVQASVSLKRLRIFLSHEELEPDSIERRPVKDGGGTNSITVRNATFTWARSDPPTLNGITFSIPEGALVAVVGQVGCGKSSLLSALLAEMDKVEGHVAIKGSVAYVPQQAWIQNDSLRENILFGCQLEEPYYRSVIQACALLPDLEILPSGDRTEIGEKGVNLSGGQKQRVSLARAVYSNADIYLFDDPLSAVDAHVGKHIFENVIGPKGMLKNKTRILVTHSMSYLPQVDVIIVMSGGKISEMGSYQELLARDGAFAEFLRTYASTEQEQDAEENGVTGVSGPGKEAKQMENGMLVTDSAGKQLQRQLSSSSSYSGDISRHHNSTAELQKAEAKKEETWKLMEADKAQTGQVKLSVYWDYMKAIGLFISFLSIFLFMCNHVSALASNYWLSLWTDDPIVNGTQEHTKVRLSVYGALGISQGIAVFGYSMAVSIGGILASRCLHVDLLHSILRSPMSFFERTPSGNLVNRFSKELDTVDSMIPEVIKMFMGSLFNVIGACIVILLATPIAAIIIPPLGLIYFFVQRFYVASSRQLKRLESVSRSPVYSHFNETLLGVSVIRAFEEQERFIHQSDLKVDENQKAYYPSIVANRWLAVRLECVGNCIVLFAALFAVISRHSLSAGLVGLSVSYSLQVTTYLNWLVRMSSEMETNIVAVERLKEYSETEKEAPWQIQETAPPSSWPQVGRVEFRNYCLRYREDLDFVLRHINVTINGGEKVGIVGRTGAGKSSLTLGLFRINESAEGEIIIDGINIAKIGLHDLRFKITIIPQDPVLFSGSLRMNLDPFSQYSDEEVWTSLELAHLKDFVSALPDKLDHECAEGGENLSVGQRQLVCLARALLRKTKILVLDEATAAVDLETDDLIQSTIRTQFEDCTVLTIAHRLNTIMDYTRVIVLDKGEIQEYGAPSDLLQQRGLFYSMAKDAGLV
Km: 3.6 µM
